# In the supplement of paper PMC9112550, “Optimization of the antimicrobial peptide Bac7 by deep mutational scanning” (BMC Biology, 2022):
# System: Escherichia coli TOP10
# Test: shrunken log2 fold change of peptide-encoding DNA abundance (4.5 h post-induction vs induction); higher = less antimicrobial activity (less host growth inhibition)
# Conditions: time post-induction: 4.5 h; library: site-saturation at positions 5, 18, 19, 20
# 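Further: peptides expressed intracellularly from a pBAD plasmid library in pooled LB shake-flask culture, induced with 0.3% L-arabinose, DNA abundance read by NGS, three biological replicates, DESeq2 with apeglm shrinkage.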
row,Sequence,shrunken log2 fold change
1,RRIRKRPPRLPRPRPRPNRKPRP,0.0065
2,RRIRKRPPRLPRPRPRPNSWPRP,0.222
3,RRIRKRPPRLPRPRPRPNTRPRP,-0.0607
4,RRIRKRPPRLPRPRPRPNVGPRP,-0.0151
5,RRIRKRPPRLPRPRPRPNVIPRP,0.0501
6,RRIRKRPPRLPRPRPRPNVQPRP,0.179
7,RRIRKRPPRLPRPRPRPNWRPRP,1.32
8,RRIRKRPPRLPRPRPRPPAIPRP,0.657
9,RRIRKRPPRLPRPRPRPPANPRP,0.48
10,RRIRKRPPRLPRPRPRPPDQPRP,0.802
11,RRIRKRPPRLPRPRPRPPDWPRP,1.48
12,RRIRKRPPRLPRPRPRPPESPRP,0.303
13,RRIRKRPPRLPRPRPRPPFGPRP,0.715
14,RRIRKRPPRLPRPRPRPPHMPRP,0.208
15,RRIRKRPPRLPRPRPRPPINPRP,-0.0392
16,RRIRKRPPRLPRPRPRPPKDPRP,0.498
17,RRIRKRPPRLPRPRPRPPKRPRP,1.15
18,RRIRKRPPRLPRPRPRPPKVPRP,0.613
19,RRIRKRPPRLPRPRPRPPMQPRP,0.439
20,RRIRKRPPRLPRPRPRPPNSPRP,0.156
21,RRIRKRPPRLPRPRPRPPPAPRP,1.29
22,RRIRKRPPRLPRPRPRPPPSPRP,0.911

row,Sequence,shrunken log2 fold change
1,RRIRKRPPRLPRPRPRPPQRPRP,1.08
2,RRIRKRPPRLPRPRPRPPTAPRP,0.742
3,RRIRKRPPRLPRPRPRPPTIPRP,0.119
4,RRIRKRPPRLPRPRPRPPTQPRP,0.301
5,RRIRKRPPRLPRPRPRPPVVPRP,0.453
6,RRIRKRPPRLPRPRPRPPWVPRP,0.221
7,RRIRKRPPRLPRPRPRPPYLPRP,0.0134
8,RRIRKRPPRLPRPRPRPQARPRP,-0.0213
9,RRIRKRPPRLPRPRPRPQCWPRP,0.00452
10,RRIRKRPPRLPRPRPRPQEAPRP,-0.000925
11,RRIRKRPPRLPRPRPRPQEPPRP,0.01
12,RRIRKRPPRLPRPRPRPQFIPRP,-0.0823
13,RRIRKRPPRLPRPRPRPQGFPRP,-0.00783
14,RRIRKRPPRLPRPRPRPQILPRP,-0.144
15,RRIRKRPPRLPRPRPRPQSAPRP,0.319
16,RRIRKRPPRLPRPRPRPQSFPRP,0.327
17,RRIRKRPPRLPRPRPRPQSIPRP,0.147
18,RRIRKRPPRLPRPRPRPQTTPRP,0.289
19,RRIRKRPPRLPRPRPRPQVFPRP,0.00956
20,RRIRKRPPRLPRPRPRPQYKPRP,-0.343
21,RRIRKRPPRLPRPRPRPRAIPRP,0.304
22,RRIRKRPPRLPRPRPRPRAMPRP,-0.107

row,Sequence,shrunken log2 fold change
1,RRIRKRPPRLPRPRPRPRCRPRP,0.506
2,RRIRKRPPRLPRPRPRPRDFPRP,0.188
3,RRIRKRPPRLPRPRPRPRDSPRP,0.262
4,RRIRKRPPRLPRPRPRPREVPRP,0.538
5,RRIRKRPPRLPRPRPRPRFWPRP,1.42
6,RRIRKRPPRLPRPRPRPRGNPRP,0.258
7,RRIRKRPPRLPRPRPRPRGSPRP,0.319
8,RRIRKRPPRLPRPRPRPRHFPRP,0.0965
9,RRIRKRPPRLPRPRPRPRHHPRP,0.476
10,RRIRKRPPRLPRPRPRPRHNPRP,-0.241
11,RRIRKRPPRLPRPRPRPRHRPRP,0.264
12,RRIRKRPPRLPRPRPRPRHVPRP,0.0906
13,RRIRKRPPRLPRPRPRPRKRPRP,1.04
14,RRIRKRPPRLPRPRPRPRMQPRP,0.622
15,RRIRKRPPRLPRPRPRPRPNPRP,0.42
16,RRIRKRPPRLPRPRPRPRQCPRP,-0.0759
17,RRIRKRPPRLPRPRPRPRRDPRP,0.491
18,RRIRKRPPRLPRPRPRPRRFPRP,0.39
19,RRIRKRPPRLPRPRPRPRTMPRP,0.179
20,RRIRKRPPRLPRPRPRPRTQPRP,0.605
21,RRIRKRPPRLPRPRPRPRVQPRP,0.386
22,RRIRKRPPRLPRPRPRPRWFPRP,0.295

row,Sequence,shrunken log2 fold change
1,RRIRKRPPRLPRPRPRPSDAPRP,-0.0187
2,RRIRKRPPRLPRPRPRPSDIPRP,1.14
3,RRIRKRPPRLPRPRPRPSEQPRP,0.0244
4,RRIRKRPPRLPRPRPRPSEWPRP,0.212
5,RRIRKRPPRLPRPRPRPSIRPRP,-0.375
6,RRIRKRPPRLPRPRPRPSKHPRP,0.0908
7,RRIRKRPPRLPRPRPRPSLAPRP,0.614
8,RRIRKRPPRLPRPRPRPSLDPRP,0.183
9,RRIRKRPPRLPRPRPRPSLMPRP,0.256
10,RRIRKRPPRLPRPRPRPSLTPRP,-0.0632
11,RRIRKRPPRLPRPRPRPSMDPRP,0.0069
12,RRIRKRPPRLPRPRPRPSNLPRP,-0.0133
13,RRIRKRPPRLPRPRPRPSPNPRP,1.52
14,RRIRKRPPRLPRPRPRPSQIPRP,0.00892
15,RRIRKRPPRLPRPRPRPSQYPRP,-0.21
16,RRIRKRPPRLPRPRPRPSSLPRP,-0.557
17,RRIRKRPPRLPRPRPRPSSTPRP,-0.151
18,RRIRKRPPRLPRPRPRPSSVPRP,-0.378
19,RRIRKRPPRLPRPRPRPSTCPRP,-0.0517
20,RRIRKRPPRLPRPRPRPSVHPRP,-0.118
21,RRIRKRPPRLPRPRPRPSVMPRP,0.163
22,RRIRKRPPRLPRPRPRPSVNPRP,-0.0205

row,Sequence,shrunken log2 fold change
1,RRIRKRPPRLPRPRPRPSWLPRP,0.303
2,RRIRKRPPRLPRPRPRPSWVPRP,-0.0457
3,RRIRKRPPRLPRPRPRPSYAPRP,0.0314
4,RRIRKRPPRLPRPRPRPSYEPRP,-0.304
5,RRIRKRPPRLPRPRPRPTDWPRP,0.169
6,RRIRKRPPRLPRPRPRPTFLPRP,0.228
7,RRIRKRPPRLPRPRPRPTGDPRP,0.727
8,RRIRKRPPRLPRPRPRPTGGPRP,0.13
9,RRIRKRPPRLPRPRPRPTIRPRP,-0.241
10,RRIRKRPPRLPRPRPRPTISPRP,-0.279
11,RRIRKRPPRLPRPRPRPTKSPRP,2.1
12,RRIRKRPPRLPRPRPRPTKTPRP,0.14
13,RRIRKRPPRLPRPRPRPTLFPRP,0.111
14,RRIRKRPPRLPRPRPRPTLHPRP,0.359
15,RRIRKRPPRLPRPRPRPTLYPRP,0.0394
16,RRIRKRPPRLPRPRPRPTNKPRP,0.14
17,RRIRKRPPRLPRPRPRPTQEPRP,0.294
18,RRIRKRPPRLPRPRPRPTQNPRP,1.07
19,RRIRKRPPRLPRPRPRPTRGPRP,0.857
20,RRIRKRPPRLPRPRPRPTRKPRP,3.78
21,RRIRKRPPRLPRPRPRPTRSPRP,0.831
